Data published in patent US7399466B2, “Method and compositions for promoting osteogenesis” (Enobia Pharma Inc., priority 2000, dated 2008).
Positions count from the first letter of the chain named. “And” between values parts separate entries of the source, which are not always exact repeats. Equal entries are not always repeated. Where two headings read alike, the source gives them in different places. One block for each molecule: values may come before it. Bridges are numbered along the chain shown (N, C = ends). Where no end group is shown, it is not given here. [ ]: non-standard residue; d: D form. Gla = N[C@@H](CC(C(=O)O)C(=O)O)C(=O)O

What was measured:
secPHEX = molecular target: T1, secPHEX (Homo sapiens, UniProt P78562); experiment: secPHEX enzymatic assay: inhibition of PTHrP107-139 hydrolysis (RP-HPLC); type: biochemical
T1 construct: made in house; host or cells: LLC-PK1 cells (porcine kidney; ATCC No. CRL-1392), stably transfected; purified from culture medium
T1 sequence (P78562 46-749): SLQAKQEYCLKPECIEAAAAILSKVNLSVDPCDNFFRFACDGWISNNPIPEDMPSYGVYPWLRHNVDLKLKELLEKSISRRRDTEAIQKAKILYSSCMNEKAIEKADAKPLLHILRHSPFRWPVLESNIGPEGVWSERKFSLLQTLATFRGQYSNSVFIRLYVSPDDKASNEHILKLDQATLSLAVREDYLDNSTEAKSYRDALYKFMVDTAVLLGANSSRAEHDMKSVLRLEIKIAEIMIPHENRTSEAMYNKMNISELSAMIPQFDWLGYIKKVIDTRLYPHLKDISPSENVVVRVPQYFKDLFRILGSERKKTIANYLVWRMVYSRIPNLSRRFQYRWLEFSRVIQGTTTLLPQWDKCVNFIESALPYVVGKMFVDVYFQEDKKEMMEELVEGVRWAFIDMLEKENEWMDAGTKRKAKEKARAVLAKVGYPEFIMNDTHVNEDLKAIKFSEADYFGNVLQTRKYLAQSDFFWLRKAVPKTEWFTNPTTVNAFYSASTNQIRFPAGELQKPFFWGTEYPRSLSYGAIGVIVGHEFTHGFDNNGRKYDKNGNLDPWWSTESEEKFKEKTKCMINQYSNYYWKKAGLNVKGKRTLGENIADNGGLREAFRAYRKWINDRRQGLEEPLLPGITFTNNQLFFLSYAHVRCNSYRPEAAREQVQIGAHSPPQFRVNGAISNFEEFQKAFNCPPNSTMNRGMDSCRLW
Experimental: (§1) One μg of purified secPHEX or secPHEXE581V was incubated with 5 μg of peptide substrate for 30 min at 37° C. in a volume of 200 μl of 50 mM MES (2-(N-morpholino) ethanesulfonic acid) pH6.5, 150 mM NaCl. Peptide PTHrP107-139 (human origin and obtained from Bachem, Philadelphia, Pa., U.S.A. or Peninsula Laboratories, Belmont, Calif., U.S.A.), used as a substrate, was prepared as 1 μg/μl solutions also containing 1 μg/μl of the tripeptide Tyr-Gly-Gly. This latter peptide, which is not a PHEX substrate, was used as an internal standard. Peptide substrate AWLDSGV (Dr Gilles Lajoie, Waterloo Peptide Synthesis C2-360 University of Waterloo, Waterloo, ON Canada) (SEQ ID NO: 1) was digested with secPHEX in the same manner as described above for PTHrP107-139. To determine osteocalcin inhibitory potency on secPHEX activity, osteocalcin (Peptide Research Institute, Japan or E. coli-produced) was added to the reaction mixture to final concentrations varying from 10^−8 to 5×10^−4 M. To determine the effect of agents on the inhibitory activity of osteocalcin, the agents were added to a reaction mixture containing secPHEX, peptide substrate and 5×10^−6 M osteocalcin. […] Following the incubation period, hydrolysis was stopped by the addition of EDTA to a final concentration of 5 mM. The potentiating agent was identified when the intact substrate was determined to be present in a […] concentration than in the absence of the potentiating agent (see FIG. 6). Results were quantified by comparing, after normalization for the amounts of peptide Tyr-Gly-Gly present in the samples, the areas under the peaks of the substrate.
Identification and quantification of the enzymatic activity of secPHEX on the PTHrP107-139 peptide was performed by reverse phase high performance liquid chromatography (RP-HPLC) on a C18 μBondapak analytical column (Waters, Mississauga, ON, Canada) with a UV detector set at 214 nm. Peptides were resolved with a linear gradient of 5% B to 85% B in 45 min at the flow rate of 0.4 ml/min [mobile phase A=0.1% trifluoroacetic acid; mobile phase B=80% acetonitrile (CH3CN), 0.1% trifluoroacetic acid].

osteocalcin = molecular target: T2, osteocalcin (Homo sapiens, UniProt P02818); experiment: Effect of Ca2+ on the inhibitory action of osteocalcin on secPHEX; type: biochemical
T2 construct: The mature peptide is 49 amino acids long with 3 Gla residues and one difulfide bond; purchased Peptide Research Institute, Japan
T2 sequence (P02818 52-100): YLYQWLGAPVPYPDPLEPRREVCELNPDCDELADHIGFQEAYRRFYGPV
Experimental: One μg of purified secPHEX or secPHEXE581V was incubated with 5 μg of peptide substrate for 30 min at 37° C. in a volume of 200 μl of 50 mM MES (2-(N-morpholino) ethanesulfonic acid) pH6.5, 150 mM NaCl. Peptide PTHrP107-139 (human origin and obtained from Bachem, Philadelphia, Pa., U.S.A. or Peninsula Laboratories, Belmont, Calif., U.S.A.), used as a substrate, was prepared as 1 μg/μl solutions also containing 1 μg/μl of the tripeptide Tyr-Gly-Gly. This latter peptide, which is not a PHEX substrate, was used as an internal standard. Peptide substrate AWLDSGV (Dr Gilles Lajoie, Waterloo Peptide Synthesis C2-360 University of Waterloo, Waterloo, ON Canada) (SEQ ID NO: 1) was digested with secPHEX in the same manner as described above for PTHrP107-139. […] The potentiating agent was identified when the intact substrate was determined to be present in a […] concentration than in the absence of the potentiating agent (see FIG. 6). Results were quantified by comparing, after normalization for the amounts of peptide Tyr-Gly-Gly present in the samples, the areas under the peaks of the substrate.
(§2) Identification and quantification of the enzymatic activity of secPHEX on the PTHrP107-139 peptide was performed by reverse phase high performance liquid chromatography (RP-HPLC) on a C18 μBondapak analytical column (Waters, Mississauga, ON, Canada) with a UV detector set at 214 nm. […]

PTHrP107-139 = experiment: secPHEX activity: digestion of PTHrP107-139 (RP-HPLC, MALDI-Tof); type: biochemical, human
Experimental: as §1, §2
The pH optimum for the reaction was determined by progressively increasing the pH of the MES buffer from 5.0 to 7.0 or of a Tris buffer (50 mM Tris.HCl, 150 mM NaCl) from 7.0 to 9.0.

Hyp male mice [1] = experiment: secPHEX injection to Hyp mice, daily for 4 days: serum phosphate; type: in vivo, mouse; set-up: serum phosphate, Day 0 / serum phosphate, Day 4: unit not given here; details: for serum phosphate, Day 0 / serum phosphate, Day 4: individual Hyp mice; for serum phosphate, Day 0: baseline before treatment
Experimental: Purified secPHEX solubilized in 1 mM phosphate pH 7.4, 150 mM NaCl, was administered intravenously daily for 4 or 14 consecutive days through the subclavian vein Hyp males (12 weeks of age). The same number of aged-matched Hyp male mice were treated with vehicle only as controls. […]

[2] = Precipitation of secPHEX in low-salt solutions; type: physicochemical; details: NaCl added to reaction mixture
Experimental: SecPHEX activity was assayed in 50 mM MES pH 6.5 containing 150 mM NaCl (26). Sodium chloride was added to the reaction mixture because we observed that secPHEX precipitated out in solutions containing less than 50 mM salt.

Hyp male mice [3] = experiment: secPHEX injection to Hyp mice, daily for 14 days: serum alkaline phosphatase and phosphate; type: in vivo, mouse
Experimental: Purified secPHEX solubilized in 1 mM phosphate pH 7.4, 150 mM NaCl, was administered intravenously daily for 4 or 14 consecutive days through the subclavian vein Hyp males (12 weeks of age). The same number of aged-matched Hyp male mice were treated with vehicle only as controls.
In a similar experiment, Hyp male mice where injected with daily doses of 1 mg/kg secPHEX for 14 days.

[4] = PTHrP107-139 substrate, inhibitor varied from 0.1 to 50 mM, read-out: concentration giving 50% inhibition of secPHEX activity
[5] = 1 mM added to the reaction mixture
[6] = 1 mg/kg daily, individual Hyp mice

- inhibition of secPHEX activity (secPHEX; 5×10^−6 M osteocalcin): approximately 75%
- degradation by secPHEX (secPHEX; data not shown): not degraded
- IC50 (secPHEX; secPHEX-mediated PTHrP107-139 hydrolysis, FIG. 6A, read-out: concentration giving fifty percent inhibition of secPHEX activity): 0.0036 mM
Molecule: osteocalcin: non-collagenous bone protein, mature peptide 49 amino acids with 3 Gla residues; extracted from human bones (YLYQWLGAPVPYPDPL[Gla]PRR[Gla]VC[Gla]LNPDCDELADHIGFQEAYRRFYGPV; disulfide 23-29 (inferred))

- IC50 (secPHEX; [4]): 3.5 mM
Molecule: O=P(O)(O)O [Pi]

- inhibition of secPHEX activity (secPHEX; [5]): fully inhibited
Molecule: c1cnc2c(c1)ccc1cccnc12 [1,10-phenanthroline]

Molecule: O=P(O)(O)OP(=O)(O)O [pyrophosphate]
- IC50 (secPHEX; [4]): 2.5 mM

Molecule: E. coli-produced osteocalcin: human osteocalcin without Gla residues made in E. coli (pGEX-OST vector) (YLYQWLGAPVPYPDPLEPRREVCELNPDCDELADHIGFQEAYRRFYGPV)
- modulation of inhibitory activity on secPHEX by Ca2+ (osteocalcin; FIG. 7B): not modulated
- inhibitory potency on secPHEX compared to osteocalcin extracted from bones (secPHEX; FIG. 7A): similar

Molecule: [Ca+2] [Ca^2+, CaCl2, reference compound]
- EC50 (osteocalcin; CaCl2 varied from 10^−6 to 10^−2 M, constant osteocalcin 2×10^−6M (FIG. 6B), read-out: Ca2+ concentration necessary to reduce the inhibitory potency of osteocalcin by 50%): 5 mM
- effect on secPHEX activity in the absence of osteocalcin (secPHEX; data not shown): no effect

Molecule: O=C(O)CN(CCN(CC(=O)O)CC(=O)O)CC(=O)O [EDTA]
- inhibition of secPHEX activity (secPHEX; [5]): fully inhibited

B1: secPHEX: soluble, secreted form of recombinant human PHEX zinc metallopeptidase produced in LLC-PK1 cells (protein, UniProt P78562 42-641, looked up)
extracellular domain: QGLLSLQAKQEYCLKPECIEAAAAILSKVNLSVDPCDNFFRFACDGWISNNPIPEDMPSYGVYPWLRHNVDLKLKELLEKSISRRRDTEAIQKAKILYSSCMNEKAIEKADAKPLLHILRHSPFRWPVLESNIGPEGVWSERKFSLLQTLATFRGQYSNSVFIRLYVSPDDKASNEHILKLDQATLSLAVREDYLDNSTEAKSYRDALYKFMVDTAVLLGANSSRAEHDMKSVLRLEIKIAEIMIPHENRTSEAMYNKMNISELSAMIPQFDWLGYIKKVIDTRLYPHLKDISPSENVVVRVPQYFKDLFRILGSERKKTIANYLVWRMVYSRIPNLSRRFQYRWLEFSRVIQGTTTLLPQWDKCVNFIESALPYVVGKMFVDVYFQEDKKEMMEELVEGVRWAFIDMLEKENEWMDAGTKRKAKEKARAVLAKVGYPEFIMNDTHVNEDLKAIKFSEADYFGNVLQTRKYLAQSDFFWLRKAVPKTEWFTNPTTVNAFYSASTNQIRFPAGELQKPFFWGTEYPRSLSYGAIGVIVGHEFTHGFDNNGRKYDKNGNLDPWWSTESEEKFKEKTKCMINQYSNYYWKKAGLNVKGKRTLG
modifications: extracellular domain
notes: soluble, secreted form of recombinant human PHEX zinc metallopeptidase produced in LLC-PK1 cells
- pH of maximum activity (PTHrP107-139; MES buffer pH 5.0 to 7.0, Tris buffer pH 7.0 to 9.0): 6.5
- cleavage site specificity in PTHrP107-139 (PTHrP107-139; fragments identified by MALDI-Tof): amino-terminus of aspartate residues
- effect on serum phosphate (Hyp male mice [1]; daily injection over 4 days, as a function of dose, Student t test p<0.05): decreased
- serum phosphate, Day 0 (Hyp male mice [1]; dose 1 mg/kg group, 1 mg/kg): 1.68 and 1.25 and 1.36 and 1.37
- serum phosphate, Day 4 (Hyp male mice [1]; dose 1 mg/kg i.v. daily for 4 days, 1 mg/kg): 1.23 and 1.06 and 1.18 and 1.31
- serum phosphate, Day 0 (Hyp male mice [1]; dose 10 mg/kg group, 10 mg/kg): 1.16 and 1.12 and 1.39 and 1.14
- serum phosphate, Day 4 (Hyp male mice [1]; dose 10 mg/kg i.v. daily for 4 days, 10 mg/kg): 0.92 and 0.82 and 0.89 and 0.87
- salt concentration below which secPHEX precipitated out [2]: less than 50 mM
- serum phosphate levels at the 7th and 14th day (Hyp male mice [3]; 1 mg/kg daily for 14 days): same level as pretreatment
- effect on serum alkaline phosphatase levels (Hyp male mice [3]; 1 mg/kg daily for 14 days, normal levels 71+/−11 units, Student t test p<0.05): significantly reduced toward normal levels
- alkaline phosphatase level, 7th day of treatment (Hyp male mice [3]; [6]): 183 units and 235 units and 233 units and 199 units and 246 units
- alkaline phosphatase level, 14th day of treatment (Hyp male mice [3]; [6]): 196 units (2×) and 208 units and 193 units and 218 units
- alkaline phosphatase level, pre-treatment (Hyp male mice [3]; 1 mg/kg group, individual Hyp mice, 7 day pre-treatment): 292 units and 357 units and 377 units and 348 units and 323 units

B2: secPHEXE581V: inactive secPHEX protein bearing the mutation Glu 581 to Val (protein)
chain: B1 extracellular domain with E540V
- degradation of PTHrP107-139 (in words) (PTHrP107-139; similar conditions as secPHEX, FIG. 3D): failed to degrade
